Target: thrombin (UniProt P00734;P00734 328-363;364-622)
Assay: 19F NMR

GGTTGGTGTGGTTGG (structured_DNA, dT9 replaced by 5-[{3,5-bis(trifluoromethyl)phenyl}ethynyl]-2'-deoxyuridine) [T9 (19F-labeled TBA)]: binds.
